Measurements published in paper PMC2191632 (The Journal of Experimental Medicine, 1994).
Where no end group is shown, it is not given here.

Experiments:
[1] = Solubility of polyalanine-based peptide; format: physicochemical; conditions: in words; lysine then inserted at NH2 terminus to increase solubility
[2] = biological target: DRB1*0405 complex (HLA-DR4, DRA-DRB1*0405) (Homo sapiens, UniProt P01903+P01911, A100R/A169T/D86S/F76Y/I96L/K127E/L162R/M171V/N62H/P40V/Q125Y/R42H/S133A/S149N/S66Y/V115G/V209L/W38E); format: binding
DRB1*0406 complex = DRB1*0406 complex (Homo sapiens, UniProt P01903+P01911, A100R/A103E/A169T/F76Y/I96L/K127E/L162R/M171V/N62H/P40V/Q125Y/R42H/S133A/S149N/V209L/W38E); format: binding
[3] = biological target: HLA-DR4 (DRA-DRB1*0406 complex) (human (endogenous in KT13)); experiment: radioligand binding
[4] = biological target: HLA-DR4 (DRA-DRB1*0405 complex) (human (endogenous in EBWa)); experiment: radioligand binding

| Molecule | IC50 [3] [µM] | percent inhibition of 125I-0405BP3 binding at 20 uM [4] [%] | percent inhibition of 125I-0405BP3 binding at 20 uM [3] [%] | other results |
| --- | --- | --- | --- | --- |
| AAYAAVAVAA | – | – | – | Solubility [1]: not soluble |
| AAFAAMASAA | – | – | – | IC50 [2]: 3.6 µM; IC50 (DRB1*0406 complex): 1.1 µM |
| AALAAIASAA | – | – | – | IC50 [2]: 11 µM; IC50 (DRB1*0406 complex): 8.8 µM |
| KAAYAAVAVAA | – | – | – | IC50 [2]: 5.1 µM; IC50 (DRB1*0406 complex): 12.2 µM |
| K-Ins beta p1-18 (…) (peptide) | > 500 | – | – | – |
| AAYAALANAA | – | – | – | IC50 [2]: 1.4 µM; IC50 (DRB1*0406 complex): 5 µM |
| KLVEALYLVCGERGFFYTPKT [K-Ins beta p11-30 (…)] | 14.5 | – | – | – |
| NELSGEAHKDALGKLY [irrelevant peptide (…), unlabeled] | – | 1 | 2 | – |
| VPIQRAVYQNVVVNN [0405BP1 (…), unlabeled] | – | 103 | 70 | – |
| SPGTGAYYVLLN [0405BP2 (…)] | – | 93 | 85 | – |
| GSTVFDNLPNPEIDGDYYGW [0405BP3 (…), unlabeled] | – | 97 | 96 | Kd [4]: 0.07 µM |
| SDPILYRPVAVALDTKGPE [PKM2p99-117 (…), unlabeled] | – | 90 | 71 | – |
| GPKPLFRRMSSLVGPTQSFF [CD20p26-45 (…)] | – | 90 | 96 | – |
| EGQLVSIHSPEEQDFLTKHA [CD23p195-214 (…)] | – | 59 | 63 | – |
| GSTVFDNLPAPE [… with 10th N to A] | – | – | – | percent by which the substitution inhibited binding (against …) [4]: 70% |
| AAFAAMASAA | 1.1 | – | – | – |
| AALAAIASAA | 8.8 | – | – | – |
| AAYAALANAA | 5 | – | – | – |
| KAAYAAVAVAA | 12.2 | – | – | – |
| AAKAAKAGAA | > 500 | – | – | – |
| KGIVEQCCTSI [K-Ins alpha p1-10 (…)] | > 500 | – | – | – |
| KKTSICSLYQLE [KK-Ins alpha p8-17 (…)] | 4.1 | – | – | – |
| KSLYQLENYCN [K-Ins alpha p12-21 (…)] | 12 | – | – | – |
